The values that follow come from the supplement of paper PMC7125110.

B1: glmS ribozyme (parent)
chain: AUAAAAGCGCCAGAACUACAGAAAUGUAGUUGACGAGGAGGAGGUUUAUCGAAUUUUCGGCGGAUGCCUCCAAA

± gives the standard error. Variants at the floor of the assay were thinned out.

Holding throughout (conditions): with glucosamine-6-phosphate
The variants in data set [1] derive from B1. The data set can be described thus: self-cleavage kobs at 640 uM GlcN6P; higher = faster cleavage; RNA array. In outline: (§1)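 Barcoded ribozyme variants, transcribed in situ by E. coli RNA polymerase on sequenced MiSeq chips, were followed via a hybridised Cy3 probe at 37 °C. Glucosamine-6-phosphate ranged from 40 μM to 10 mM in HEPES/KCl/Mg(OAc)2 buffer. kobs came from decay fits to per-tile medians, and kcat and KM from weighted Michaelis–Menten fits.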

Data set [2] covers variants of B1. Briefly: self-cleavage kobs at 2500 uM GlcN6P; higher = faster cleavage; RNA array. The gist of the method: as §1
Data set [3] covers variants of B1. Briefly: self-cleavage kobs at 10000 uM GlcN6P; higher = faster cleavage; RNA array. In outline: as §1

With A33C G38A U47G, the “self-cleavage kobs at 640 uM GlcN6P” value with glucosamine-6-phosphate [1] was below 1e-05 s⁻¹. The “self-cleavage kobs at 2500 uM GlcN6P” value in the data set with glucosamine-6-phosphate [2] was below 1e-05 s⁻¹.

In the case of C11U A33C U55G C58U, the “self-cleavage kobs at 640 uM GlcN6P” value with glucosamine-6-phosphate [1] is below 1e-05 s⁻¹. As to U56C U57C, the “self-cleavage kobs at 640 uM GlcN6P” value with glucosamine-6-phosphate [1] was found to be 7.5e-05 ± 2.2e-05 s⁻¹. Besides, in the data set with glucosamine-6-phosphate [2], the “self-cleavage kobs at 2500 uM GlcN6P” value stood at 8.12e-05 ± 1.7e-05 s⁻¹.

As to C50A U54C U57C C70A, the “self-cleavage kobs at 640 uM GlcN6P” value with glucosamine-6-phosphate [1] is below 1e-05 s⁻¹.

As to A36G U45A U49C, in the data set with glucosamine-6-phosphate [1], the “self-cleavage kobs at 640 uM GlcN6P” value was below 1e-05 s⁻¹. For the same variant, in the data set with glucosamine-6-phosphate [2], the “self-cleavage kobs at 2500 uM GlcN6P” value was below 1e-05 s⁻¹. As to A14G C50G G51C C61U U69A, in the data set with glucosamine-6-phosphate [1], the “self-cleavage kobs at 640 uM GlcN6P” value amounted to 0.000136 ± 6.5e-05 s⁻¹.

G51A G62C G63C: the “self-cleavage kobs at 640 uM GlcN6P” value with glucosamine-6-phosphate [1] is below 1e-05 s⁻¹. Consider U30A G40U U45A, for which, in the data set with glucosamine-6-phosphate [1], the “self-cleavage kobs at 640 uM GlcN6P” value is 4.42e-05 ± 2.1e-05 s⁻¹. The “self-cleavage kobs at 2500 uM GlcN6P” value in the data set with glucosamine-6-phosphate [2] stood at 0.000226 ± 5.7e-05 s⁻¹. A14C G37A A39U C68A: the “self-cleavage kobs at 640 uM GlcN6P” value with glucosamine-6-phosphate [1] is below 1e-05 s⁻¹.

With A42G U47G C67U, the “self-cleavage kobs at 640 uM GlcN6P” value in the data set with glucosamine-6-phosphate [1] came to 0.00108 ± 0.00019 s⁻¹. Further, the “self-cleavage kobs at 2500 uM GlcN6P” value with glucosamine-6-phosphate [2] worked out at 0.0013 ± 0.00029 s⁻¹. Consider C8G A12G U49C, for which the “self-cleavage kobs at 640 uM GlcN6P” value with glucosamine-6-phosphate [1] is below 1e-05 s⁻¹. Consider U31C G35C G38U, for which, in the data set with glucosamine-6-phosphate [1], the “self-cleavage kobs at 640 uM GlcN6P” value is below 1e-05 s⁻¹. Consider A33C G44U C71A, for which the “self-cleavage kobs at 640 uM GlcN6P” value in the data set with glucosamine-6-phosphate [1] is below 1e-05 s⁻¹. In addition, the “self-cleavage kobs at 2500 uM GlcN6P” value with glucosamine-6-phosphate [2] is below 1e-05 s⁻¹. Consider C8G G9C A39C, for which the “self-cleavage kobs at 640 uM GlcN6P” value with glucosamine-6-phosphate [1] was below 1e-05 s⁻¹. In addition, the “self-cleavage kobs at 2500 uM GlcN6P” value with glucosamine-6-phosphate [2] is below 1e-05 s⁻¹.

In the case of C34U U49A U55G C61U C68G, the “self-cleavage kobs at 640 uM GlcN6P” value with glucosamine-6-phosphate [1] was determined as 0.000585 ± 0.00016 s⁻¹. Consider G40C G41U G43U, for which the “self-cleavage kobs at 640 uM GlcN6P” value with glucosamine-6-phosphate [1] was below 1e-05 s⁻¹. Besides, the “self-cleavage kobs at 2500 uM GlcN6P” value with glucosamine-6-phosphate [2] was below 1e-05 s⁻¹.

Take G7C U30G A64G: in the data set with glucosamine-6-phosphate [1], the “self-cleavage kobs at 640 uM GlcN6P” value was below 1e-05 s⁻¹. As for A6C C34A G41C C68A, the “self-cleavage kobs at 640 uM GlcN6P” value with glucosamine-6-phosphate [1] is below 1e-05 s⁻¹. In addition, the “self-cleavage kobs at 2500 uM GlcN6P” value in the data set with glucosamine-6-phosphate [2] is below 1e-05 s⁻¹. Consider C10U A39U A52U C58G C71U, for which, in the data set with glucosamine-6-phosphate [1], the “self-cleavage kobs at 640 uM GlcN6P” value is below 1e-05 s⁻¹. Further, in the data set with glucosamine-6-phosphate [2], the “self-cleavage kobs at 2500 uM GlcN6P” value was below 1e-05 s⁻¹.

U45G U46A U57G: the “self-cleavage kobs at 640 uM GlcN6P” value with glucosamine-6-phosphate [1] is below 1e-05 s⁻¹. In the case of G41U U47G G51U, the “self-cleavage kobs at 640 uM GlcN6P” value with glucosamine-6-phosphate [1] is below 1e-05 s⁻¹. In the data set with glucosamine-6-phosphate [2], the “self-cleavage kobs at 2500 uM GlcN6P” value was below 1e-05 s⁻¹. As to C11U U30A C34U A36G U69A, the “self-cleavage kobs at 640 uM GlcN6P” value with glucosamine-6-phosphate [1] is 0.000685 ± 0.00016 s⁻¹.

Regarding C11A A33U A52G C68G, the “self-cleavage kobs at 640 uM GlcN6P” value with glucosamine-6-phosphate [1] came to 0.000157 ± 6.4e-05 s⁻¹. For the variant U31A U65C, in the data set with glucosamine-6-phosphate [1], the “self-cleavage kobs at 640 uM GlcN6P” value amounted to 6.63e-05 ± 2.8e-05 s⁻¹. The “self-cleavage kobs at 2500 uM GlcN6P” value with glucosamine-6-phosphate [2] was 0.000132 ± 3.7e-05 s⁻¹. Besides, the “self-cleavage kobs at 10000 uM GlcN6P” value with glucosamine-6-phosphate [3] turned out to be 0.000395 ± 0.0001 s⁻¹.

A12C G43A C61U: the “self-cleavage kobs at 640 uM GlcN6P” value with glucosamine-6-phosphate [1] is below 1e-05 s⁻¹. Moreover, the “self-cleavage kobs at 2500 uM GlcN6P” value in the data set with glucosamine-6-phosphate [2] was below 1e-05 s⁻¹. Consider C11U A12G C34A, for which the “self-cleavage kobs at 640 uM GlcN6P” value with glucosamine-6-phosphate [1] was below 1e-05 s⁻¹. Same read-out and setting: to C11U G37A U57G G63A belongs below 1e-05 s⁻¹. For G9U A15U A42G G63C U69G, in the data set with glucosamine-6-phosphate [1], the “self-cleavage kobs at 640 uM GlcN6P” value was below 1e-05 s⁻¹. The “self-cleavage kobs at 2500 uM GlcN6P” value in the data set with glucosamine-6-phosphate [2] is below 1e-05 s⁻¹. On to A15U C50G C71G, for which the “self-cleavage kobs at 640 uM GlcN6P” value in the data set with glucosamine-6-phosphate [1] is 0.000108 ± 2.6e-05 s⁻¹. For the same variant, the “self-cleavage kobs at 2500 uM GlcN6P” value in the data set with glucosamine-6-phosphate [2] turned out to be 0.000148 ± 5.1e-05 s⁻¹.

In the case of U30C A36C A39U G43A G44U, the “self-cleavage kobs at 640 uM GlcN6P” value with glucosamine-6-phosphate [1] is below 1e-05 s⁻¹.

Regarding U55C C61G G62C, the “self-cleavage kobs at 640 uM GlcN6P” value with glucosamine-6-phosphate [1] was below 1e-05 s⁻¹. On the same count and under the same terms, to A14U A15U G35A A39C G40U belongs below 1e-05 s⁻¹; to U46G G63A C70G, 5.25e-05 ± 2.2e-05 s⁻¹. For U49G C50U G66U C70U, the “self-cleavage kobs at 640 uM GlcN6P” value with glucosamine-6-phosphate [1] is 8.76e-05 ± 3.9e-05 s⁻¹. On to C10U A12U G29C G41U C70U, for which the “self-cleavage kobs at 640 uM GlcN6P” value in the data set with glucosamine-6-phosphate [1] was below 1e-05 s⁻¹. Moreover, in the data set with glucosamine-6-phosphate [2], the “self-cleavage kobs at 2500 uM GlcN6P” value is below 1e-05 s⁻¹. For G13C A48C C68G, the “self-cleavage kobs at 640 uM GlcN6P” value with glucosamine-6-phosphate [1] is below 1e-05 s⁻¹.
